These sequences were tested on AncSZ (assay: phosphorylation enrichment, bacterial display (enrichment ratio); higher = better substrate or ligand; peptides without Tyr show the background).
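Further: 11-residue human phosphosite peptides and single-mutation variants displayed on the E. coli surface, counted by deep sequencing, each peptide's frequency after selection divided by its frequency in the unselected input library; frequency after pTyr selection over input frequency; kinase dosed for 20-30% of maximal phosphorylation in three min.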

Sequence | phosphorylation enrichment
YSSLGYPLPEG [ZSWIM4_Y87_P89L] | 1.01
FAASSYSFSDL [EMD_Y59_S54F] | 0.813
TVLWQYTGTRP [UGT1A1_Y337_R336Q] | 0.903
SHNELYYEEAE [VANGL1_Y344] | 1.5
KQQEIYQELTQ [CD209_Y239] | 1.35
DKMEAYNIDET [TEKT4_Y210] | 1.32
ADYPDCKYRPR [SOX11_Y116_Y116C] | 0.733
HESEIYGKVCF [CSRP3_Y57_C58G_YF] | 1.58
RRFVFYFSFLL [PTEN_Y177_YF] | 1.06
LEQDEYALRSH [HADHB_Y244] | 1.98
RLLVVYPWTQR [HBB_Y36] | 1.09
SESSFYKSLNL [NGEF_Y289_A286S_YF] | 1.06
KSNSDYVDVLP [SH2D1B_Y127_N122K] | 1.11
SSDKVYAHQMD [MLH1_Y379_V384D] | 0.611
CSEETYRLMLQ [RET_Y981_M980T] | 1.28
LMIEEYLTKEP [BAG3_Y457_L462P] | 2.05
RLLVVFPWTQR [HBB_Y36_Y36F] | 2.13

Sequence | phosphorylation enrichment
PARLEYFENEK [IRS1_Y46_YF] | 1.35
IIRYNYLLDVL [FGFR4_Y237_S232I] | 0.943
APQYTYAQGGQ [FLNA_Y1763] | 0.72
SPRDTYSDRIG [CTPS1_Y567_S571I] | 0.445
RISRKYKKVRF [F8_Y442_G439S] | 0.879
VLRQVYVDFEG [KMT2B_Y1707_R1705Q] | 1.16
DHTVNYVLKCR [PLEKHG4_Y1068_R1064H] | 1.18
DLDTDYGSGYP [RNASEH2A_Y206] | 1.36
FSQETYFRVSN [ABCD1_Y180_Q178E_YF] | 1
EQKRFYNAMKK [SCN5A_Y1495_K1493R_YF] | 0.69
NTGLEYIKFTW [HRH1_Y386_D385E] | 1.16
LGSWTYPKTVS [ROS1_Y144_T145P] | 0.85
MAFDRYVAICS [OR8D4_Y123_C120Y_YF] | 1.15
SDGHEYIYVDP [PDGFRB_Y579] | 3.82
ERDYTYEELLN [EIF2S2_Y176] | 1.31
FEEDSYSHVMA [FDPS_Y388_I391V_YF] | 1.57

What follows are sequences tested against EPHB1 (UniProt P54762) in the same assay as above.
EPHB1, sequence (P54762 whole entry, looked up): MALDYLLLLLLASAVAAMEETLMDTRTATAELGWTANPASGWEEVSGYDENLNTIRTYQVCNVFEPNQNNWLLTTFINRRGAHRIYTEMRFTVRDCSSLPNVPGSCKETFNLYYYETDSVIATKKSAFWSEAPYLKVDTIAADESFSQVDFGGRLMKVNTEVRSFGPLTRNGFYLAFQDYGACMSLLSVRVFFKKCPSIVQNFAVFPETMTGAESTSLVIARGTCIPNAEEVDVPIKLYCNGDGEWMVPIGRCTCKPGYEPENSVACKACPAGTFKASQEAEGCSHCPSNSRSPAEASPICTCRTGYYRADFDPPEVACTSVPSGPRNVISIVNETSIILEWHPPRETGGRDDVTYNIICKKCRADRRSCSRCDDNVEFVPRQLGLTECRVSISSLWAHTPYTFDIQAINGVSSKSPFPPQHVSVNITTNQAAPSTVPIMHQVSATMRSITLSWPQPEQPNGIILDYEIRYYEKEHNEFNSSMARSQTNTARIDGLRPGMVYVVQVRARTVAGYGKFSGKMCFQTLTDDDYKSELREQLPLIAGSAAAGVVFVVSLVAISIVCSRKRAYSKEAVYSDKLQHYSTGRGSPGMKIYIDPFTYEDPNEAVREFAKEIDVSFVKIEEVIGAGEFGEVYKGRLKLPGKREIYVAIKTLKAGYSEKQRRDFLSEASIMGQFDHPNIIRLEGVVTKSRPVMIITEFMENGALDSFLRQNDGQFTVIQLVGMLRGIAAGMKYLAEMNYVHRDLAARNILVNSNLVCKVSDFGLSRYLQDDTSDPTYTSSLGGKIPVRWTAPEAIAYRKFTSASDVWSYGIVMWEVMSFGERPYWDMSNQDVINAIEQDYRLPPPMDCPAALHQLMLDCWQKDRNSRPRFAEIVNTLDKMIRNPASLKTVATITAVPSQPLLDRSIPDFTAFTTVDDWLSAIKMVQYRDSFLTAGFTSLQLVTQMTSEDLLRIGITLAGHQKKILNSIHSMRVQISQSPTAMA

Sequence | phosphorylation enrichment
YSSLGYPLPEG [ZSWIM4_Y87_P89L] | 0.53
FAASSYSFSDL [EMD_Y59_S54F] | 0.643
TVLWQYTGTRP [UGT1A1_Y337_R336Q] | 0.539
SHNELYYEEAE [VANGL1_Y344] | 0.736
KQQEIYQELTQ [CD209_Y239] | 5.8
DKMEAYNIDET [TEKT4_Y210] | 0.604
ADYPDCKYRPR [SOX11_Y116_Y116C] | 0.496
HESEIYGKVCF [CSRP3_Y57_C58G_YF] | 0.885
RRFVFYFSFLL [PTEN_Y177_YF] | 0.654
LEQDEYALRSH [HADHB_Y244] | 1.01
RLLVVYPWTQR [HBB_Y36] | 0.553
SESSFYKSLNL [NGEF_Y289_A286S_YF] | 0.598
KSNSDYVDVLP [SH2D1B_Y127_N122K] | 3.1
SSDKVYAHQMD [MLH1_Y379_V384D] | 0.537
CSEETYRLMLQ [RET_Y981_M980T] | 0.65
LMIEEYLTKEP [BAG3_Y457_L462P] | 1.15
RLLVVFPWTQR [HBB_Y36_Y36F] | 0.574

Sequence | phosphorylation enrichment
PARLEYFENEK [IRS1_Y46_YF] | 0.714
IIRYNYLLDVL [FGFR4_Y237_S232I] | 0.522
APQYTYAQGGQ [FLNA_Y1763] | 0.373
SPRDTYSDRIG [CTPS1_Y567_S571I] | 0.516
RISRKYKKVRF [F8_Y442_G439S] | 0.891
VLRQVYVDFEG [KMT2B_Y1707_R1705Q] | 0.877
DHTVNYVLKCR [PLEKHG4_Y1068_R1064H] | 0.699
DLDTDYGSGYP [RNASEH2A_Y206] | 0.691
FSQETYFRVSN [ABCD1_Y180_Q178E_YF] | 1.08
EQKRFYNAMKK [SCN5A_Y1495_K1493R_YF] | 0.562
NTGLEYIKFTW [HRH1_Y386_D385E] | 0.572
LGSWTYPKTVS [ROS1_Y144_T145P] | 0.402
MAFDRYVAICS [OR8D4_Y123_C120Y_YF] | 0.905
SDGHEYIYVDP [PDGFRB_Y579] | 2.17
ERDYTYEELLN [EIF2S2_Y176] | 0.78
FEEDSYSHVMA [FDPS_Y388_I391V_YF] | 0.696

These sequences were tested against EPHB2 (UniProt P29323) in the same assay as above.
EPHB2, sequence (P29323 whole entry, looked up): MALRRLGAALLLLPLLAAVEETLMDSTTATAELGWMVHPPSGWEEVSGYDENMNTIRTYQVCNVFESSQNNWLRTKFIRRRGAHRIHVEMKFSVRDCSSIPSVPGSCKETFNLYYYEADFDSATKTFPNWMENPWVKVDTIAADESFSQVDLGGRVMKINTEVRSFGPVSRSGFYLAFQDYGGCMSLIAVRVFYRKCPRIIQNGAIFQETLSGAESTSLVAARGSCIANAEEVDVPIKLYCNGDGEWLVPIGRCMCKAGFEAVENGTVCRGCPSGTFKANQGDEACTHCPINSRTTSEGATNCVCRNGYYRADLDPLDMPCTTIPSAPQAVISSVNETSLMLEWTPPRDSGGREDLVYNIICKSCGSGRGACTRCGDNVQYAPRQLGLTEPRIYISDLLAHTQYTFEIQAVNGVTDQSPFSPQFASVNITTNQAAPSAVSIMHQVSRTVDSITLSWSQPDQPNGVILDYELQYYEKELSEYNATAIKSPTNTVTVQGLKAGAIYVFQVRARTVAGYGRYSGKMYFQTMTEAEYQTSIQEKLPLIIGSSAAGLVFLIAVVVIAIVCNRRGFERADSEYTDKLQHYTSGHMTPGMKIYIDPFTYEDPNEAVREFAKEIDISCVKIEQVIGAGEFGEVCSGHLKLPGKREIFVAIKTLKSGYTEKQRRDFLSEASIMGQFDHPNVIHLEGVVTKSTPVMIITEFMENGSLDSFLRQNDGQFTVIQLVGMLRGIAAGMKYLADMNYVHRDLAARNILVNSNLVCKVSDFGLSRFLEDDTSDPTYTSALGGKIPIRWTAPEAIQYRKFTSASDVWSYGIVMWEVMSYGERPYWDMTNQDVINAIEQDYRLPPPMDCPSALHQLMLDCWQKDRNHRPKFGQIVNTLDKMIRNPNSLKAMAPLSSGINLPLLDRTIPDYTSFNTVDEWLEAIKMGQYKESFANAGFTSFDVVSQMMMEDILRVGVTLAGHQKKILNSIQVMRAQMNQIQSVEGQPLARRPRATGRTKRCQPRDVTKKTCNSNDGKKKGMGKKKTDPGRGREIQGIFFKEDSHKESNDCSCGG

Sequence | phosphorylation enrichment
YSSLGYPLPEG [ZSWIM4_Y87_P89L] | 0.758
FAASSYSFSDL [EMD_Y59_S54F] | 0.517
TVLWQYTGTRP [UGT1A1_Y337_R336Q] | 0.43
SHNELYYEEAE [VANGL1_Y344] | 0.733
KQQEIYQELTQ [CD209_Y239] | 3.03
DKMEAYNIDET [TEKT4_Y210] | 0.618
ADYPDCKYRPR [SOX11_Y116_Y116C] | 0.51
HESEIYGKVCF [CSRP3_Y57_C58G_YF] | 0.911
RRFVFYFSFLL [PTEN_Y177_YF] | 0.655
LEQDEYALRSH [HADHB_Y244] | 1.69
RLLVVYPWTQR [HBB_Y36] | 0.632
SESSFYKSLNL [NGEF_Y289_A286S_YF] | 0.516
KSNSDYVDVLP [SH2D1B_Y127_N122K] | 1.45
SSDKVYAHQMD [MLH1_Y379_V384D] | 0.502
CSEETYRLMLQ [RET_Y981_M980T] | 0.611
LMIEEYLTKEP [BAG3_Y457_L462P] | 0.975
RLLVVFPWTQR [HBB_Y36_Y36F] | 0.766

Sequence | phosphorylation enrichment
PARLEYFENEK [IRS1_Y46_YF] | 0.777
IIRYNYLLDVL [FGFR4_Y237_S232I] | 0.651
APQYTYAQGGQ [FLNA_Y1763] | 0.43
SPRDTYSDRIG [CTPS1_Y567_S571I] | 0.5
RISRKYKKVRF [F8_Y442_G439S] | 1.07
VLRQVYVDFEG [KMT2B_Y1707_R1705Q] | 0.722
DHTVNYVLKCR [PLEKHG4_Y1068_R1064H] | 0.677
DLDTDYGSGYP [RNASEH2A_Y206] | 0.648
FSQETYFRVSN [ABCD1_Y180_Q178E_YF] | 0.706
EQKRFYNAMKK [SCN5A_Y1495_K1493R_YF] | 0.309
NTGLEYIKFTW [HRH1_Y386_D385E] | 0.633
LGSWTYPKTVS [ROS1_Y144_T145P] | 0.432
MAFDRYVAICS [OR8D4_Y123_C120Y_YF] | 0.762
SDGHEYIYVDP [PDGFRB_Y579] | 1.72
ERDYTYEELLN [EIF2S2_Y176] | 0.718
FEEDSYSHVMA [FDPS_Y388_I391V_YF] | 0.482

These sequences were tested against FGFR1 (UniProt P11362) in the same assay as above.
FGFR1, sequence (P11362 whole entry, looked up): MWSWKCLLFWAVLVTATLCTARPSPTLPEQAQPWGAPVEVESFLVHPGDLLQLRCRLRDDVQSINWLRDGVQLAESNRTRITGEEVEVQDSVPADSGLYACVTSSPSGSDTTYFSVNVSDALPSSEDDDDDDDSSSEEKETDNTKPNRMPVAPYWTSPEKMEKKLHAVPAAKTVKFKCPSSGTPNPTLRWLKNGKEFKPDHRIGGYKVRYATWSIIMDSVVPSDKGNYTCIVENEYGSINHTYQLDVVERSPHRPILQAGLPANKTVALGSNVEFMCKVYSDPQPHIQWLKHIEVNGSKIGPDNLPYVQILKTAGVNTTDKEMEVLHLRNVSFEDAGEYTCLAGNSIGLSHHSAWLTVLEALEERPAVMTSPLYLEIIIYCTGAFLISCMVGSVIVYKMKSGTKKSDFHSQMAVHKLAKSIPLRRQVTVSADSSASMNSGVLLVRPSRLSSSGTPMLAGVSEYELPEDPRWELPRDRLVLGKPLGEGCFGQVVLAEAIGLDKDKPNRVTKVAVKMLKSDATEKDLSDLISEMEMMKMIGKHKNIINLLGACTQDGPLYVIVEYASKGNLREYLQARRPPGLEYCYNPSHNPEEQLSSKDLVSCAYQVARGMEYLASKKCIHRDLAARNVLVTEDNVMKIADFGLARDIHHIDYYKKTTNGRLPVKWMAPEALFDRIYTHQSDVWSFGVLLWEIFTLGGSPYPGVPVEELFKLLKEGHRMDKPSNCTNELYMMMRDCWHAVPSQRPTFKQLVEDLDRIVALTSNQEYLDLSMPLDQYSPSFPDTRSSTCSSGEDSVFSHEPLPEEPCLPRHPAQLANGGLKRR

Sequence | phosphorylation enrichment
YSSLGYPLPEG [ZSWIM4_Y87_P89L] | 1.28
FAASSYSFSDL [EMD_Y59_S54F] | 0.548
TVLWQYTGTRP [UGT1A1_Y337_R336Q] | 0.366
SHNELYYEEAE [VANGL1_Y344] | 1.05
KQQEIYQELTQ [CD209_Y239] | 3.1
DKMEAYNIDET [TEKT4_Y210] | 0.56
ADYPDCKYRPR [SOX11_Y116_Y116C] | 0.606
HESEIYGKVCF [CSRP3_Y57_C58G_YF] | 0.813
RRFVFYFSFLL [PTEN_Y177_YF] | 0.938
LEQDEYALRSH [HADHB_Y244] | 0.891
RLLVVYPWTQR [HBB_Y36] | 0.591
SESSFYKSLNL [NGEF_Y289_A286S_YF] | 0.477
KSNSDYVDVLP [SH2D1B_Y127_N122K] | 2.42
SSDKVYAHQMD [MLH1_Y379_V384D] | 0.452
CSEETYRLMLQ [RET_Y981_M980T] | 0.741
LMIEEYLTKEP [BAG3_Y457_L462P] | 1.2
RLLVVFPWTQR [HBB_Y36_Y36F] | 0.67

Sequence | phosphorylation enrichment
PARLEYFENEK [IRS1_Y46_YF] | 1.03
IIRYNYLLDVL [FGFR4_Y237_S232I] | 0.599
APQYTYAQGGQ [FLNA_Y1763] | 0.453
SPRDTYSDRIG [CTPS1_Y567_S571I] | 0.379
RISRKYKKVRF [F8_Y442_G439S] | 0.986
VLRQVYVDFEG [KMT2B_Y1707_R1705Q] | 0.721
DHTVNYVLKCR [PLEKHG4_Y1068_R1064H] | 0.602
DLDTDYGSGYP [RNASEH2A_Y206] | 0.689
FSQETYFRVSN [ABCD1_Y180_Q178E_YF] | 1.64
EQKRFYNAMKK [SCN5A_Y1495_K1493R_YF] | 0.369
NTGLEYIKFTW [HRH1_Y386_D385E] | 0.76
LGSWTYPKTVS [ROS1_Y144_T145P] | 0.842
MAFDRYVAICS [OR8D4_Y123_C120Y_YF] | 0.463
SDGHEYIYVDP [PDGFRB_Y579] | 8.64
ERDYTYEELLN [EIF2S2_Y176] | 0.579
FEEDSYSHVMA [FDPS_Y388_I391V_YF] | 0.934

From the supplement of paper PMC10065799, “High-throughput profiling of sequence recognition by tyrosine kinases and SH2 domains using bacterial peptide display” (eLife, 2023)
